Measured values as given in publication PMC2705190.

Key:
[1] = target: HIV-1 integrase, wild type, full-length (HIV-1); test: cross-linking; BS3 (2-0.2 mM), 3 µM IN or 1.5 µM each of two mutants, 0.75 M NaCl, 2 mM MgSO4, 25 µM ZnCl2, 25 mM Hepes-NaOH pH 7.5, 30 min at 18°C; SDS-PAGE, Sypro Orange
[2] = target: HIV-1 integrase, wild type, full-length (HIV-1); test: SEC; analytical SEC of IN alone (or an equimolar mixture of two mutants); Shodex KW403-4F column on ice, 750 mM NaCl, 10 mM MgCl2, 20 mM HEPES-NaOH pH 7.0; 35 µl IN at 0.6 mg/ml with 25 µM ZnCl2 and 2.8 mM CHAPS
[3] = target: HIV-1 integrase, wild type, full-length (HIV-1); test: SEC; analytical SEC as for IN alone, but 0.3 mg/ml LEDGF IBD pre-incubated with IN on ice for 5 min before injection; Shodex KW403-4F on ice, 750 mM NaCl, 10 mM MgCl2, 20 mM HEPES-NaOH pH 7.0

| Substance | stoichiometry N [1] | stoichiometry N [2] | stoichiometry N (per IN tetramer) [3] |
| --- | --- | --- | --- |
| HIV-1 integrase, wild type, full-length (enzyme) | 4 | 4 |  |
| integrase binding domain of lens epithelium derived growth factor (LEDGF IBD) (from UniProt O75475 1-435) (domain or fragment) |  |  | 4 |
